Test system: Type I-F Csy (Cascade) complex with Cas2-3 (cas1, cas3, csy1-csy4), endogenous (Zymomonas mobilis ZM4)
Assay: cell_activity

Sequence	activity (PAM 5'-TCC-3', His-tag insertion efficiency) [%]	activity (PAM 5'-CCC-3', knockout efficiency) [%]
AUCUUGACUCCCUCCAUGCACUUAAAAAAUCU / ATCTTGACTCCCTCCATGCACTTAAAAAATCT / AGATTTTTTAAGTGCATGGAGGGAGTCAAGAT [ZMO0038 His-tag crRNA spacer ; ZMO0038 start codon target]	100	
AUGCCGCUUUCGAUCAGGCCGCCGCCAAGAUU / ATGCCGCTTTCGATCAGGCCGCCGCCAAGATT / AATCTTGGCGGCGGCCTGATCGAAAGCGGCAT [ZMO0038 knockout crRNA spacer ; ZMO0038 target]		100
